Where a chain is given by its changes, count along the chain named.
Experiments:
HCT116-huCEACAM5 = target: T1, HCT116-huCEACAM5 (Homo sapiens, UniProt P06731, T210S); experiment: Internalization of progeny antibodies (Incucyte, pHrodo red), Example 9; assay type: cell-based; details: hIgG1.3 progeny, 25 nM mAb, Table 13A
T1 construct: expressed in transfected cells; host or cells: HCT-116
T1 sequence (P06731 35-676 T210S): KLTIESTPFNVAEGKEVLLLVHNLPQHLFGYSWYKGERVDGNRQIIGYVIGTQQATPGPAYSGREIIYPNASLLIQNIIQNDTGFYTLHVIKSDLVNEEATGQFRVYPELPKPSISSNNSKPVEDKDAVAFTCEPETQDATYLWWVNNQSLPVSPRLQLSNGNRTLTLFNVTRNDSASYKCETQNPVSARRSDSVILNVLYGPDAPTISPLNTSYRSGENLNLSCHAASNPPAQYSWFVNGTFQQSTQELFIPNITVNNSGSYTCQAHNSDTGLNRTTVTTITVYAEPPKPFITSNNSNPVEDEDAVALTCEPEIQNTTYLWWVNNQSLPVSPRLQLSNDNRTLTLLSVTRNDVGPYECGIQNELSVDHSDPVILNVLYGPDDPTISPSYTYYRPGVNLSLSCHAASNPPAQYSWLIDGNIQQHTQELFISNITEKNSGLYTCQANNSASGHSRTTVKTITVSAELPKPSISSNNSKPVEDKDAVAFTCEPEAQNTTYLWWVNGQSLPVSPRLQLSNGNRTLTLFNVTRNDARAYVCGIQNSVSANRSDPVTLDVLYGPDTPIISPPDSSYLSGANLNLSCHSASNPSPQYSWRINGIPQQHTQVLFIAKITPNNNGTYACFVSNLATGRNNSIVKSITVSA
Method: (§1) Antibodies were evaluated for internalization using HCT-116-huCEACAM5, HCT-116-cyCEACAM5, and MKN45 cell lines.
(§2) Cell lines were first analyzed for cell density and viability using a Vi-cell viability machine. The cell lines were diluted to 0.2E6 vc/mL in growth media, and a volume (50 uL) of each was dispensed to a flat-bottom 96-well plate to achieve cell counts of 10K cells/well. Ls174T media included MEM with 10% HI-FBS and 1% pen/strep. MKN45 media included RPMI (ATCC modification) with 10% HI-FBS and 1% pen/strep. HCT-116 media included McCoy's 5a with 10% HI-FBS, 1% pen/strep, and 6 μg/mL Blasticidin. Cells were allowed to adhere to wells of the 96-well plate (Corning Cat. No. 3595) at 37° C./5% CO2 for approximately 4 hours.
(§3) Each test mAb and control mAb was labeled by first pre-mixing the respective antibody with a pHrodo red (Fab conjugated to pH-sensitive; Thermo cat #Z25612) secondary reagent at a 3:1 dye:mAb molar ratio. A series of dilutions were prepared at 2× target concentration in growth media. The final mAb target concentration was 25 nM. […]
(§4) Coated plates contacted with the labeled mAbs were incubated at 37° C. for 30 minutes. Each plate was then read using an Incucyte apparatus, which collected images from the red and phase channels [10× objective; 3 images/well] for a 24-hour duration, with reads of plates every 30 minutes.

MKN45 = experiment: as above; assay type: cell-based; details: hIgG1.3 progeny, 25 nM mAb, Table 13A
Method: as §1
The MKN45 or Ls174T cells were seeded at 10K cells/well (50 uL).
as §2
Each test mAb and control mAb was labeled by first pre-mixing the respective antibody with a pHrodo red (Fab conjugated to pH-sensitive; Thermo cat #Z25612) secondary reagent at a 3:1 dye:mAb molar ratio. A series of dilutions were prepared at 2× target concentration in growth media. […]
as §4

HCT116-cyCEACAM5 = experiment: as above; assay type: cell-based, cynomolgus; details: hIgG1.3 progeny, 25 nM mAb, Table 13A
Method: as §1, §2, §3
Coated plates contacted with the labeled mAbs were incubated at 37° C. for 30 minutes. Each plate was then read using an Incucyte apparatus, which collected images from the red and phase channels [10× objective; 3 images/well] for a 24-hour duration, with reads of plates every 30 minutes. […]

full-length cyno CEACAM5 = experiment: SPR kinetics of progeny antibodies (BIACORE), Example 8; assay type: binding, cynomolgus; details: hIgG1.3f progeny antibodies, Table 12A; for Kd: read-out: cyCEACAM5 KD
From the text: (§5) Antibody genes with single amino acid substitutions and combinations of substitutions were synthesized in IgG expression vectors, transiently transfected into HEK cells, and purified via Protein A. In addition, the framework germline reversions described above were also incorporated into the sequences of the progeny. Purified IgG1.3 CEACAM5 mAb clones were characterized using the BIACORE® for high-throughput SPR-based monoclonal characterization.
(§6) The BIACORE® instrument was primed with 1×HBSP+ running buffer (Cytiva catalog no.BR100671). The CM5 chip (Cytiva catalog no. 29149604) was equilibrated to room temperature, and the BIACORE® instrument was re-primed. A human antibody Fc capture kit (Cytiva catalog no. 29234600) was utilized for this analysis. The human antibody Fc capture reagent was immobilized to both flow cells in all 8 flow channels of the CM5 chip via amine-coupling using the following conditions. Immobilization was performed at a temperature of 25° C. The anti-human Fc capture reagent was diluted to a concentration of 25 μg/mL in acetate pH5 buffer. The chip surface was activated by injecting a mixture of 1-ethyl-3-(-3-dimethylaminopropyl) carbodiimide hydrochloride (EDC) and N-hydroxy succinimide (NHS) for 420 seconds at a rate of 10 microliters per minute (uL/min). A concentration (25 ug/mL) of anti-human Fc capture reagent was then injected on the surface for 420 seconds at a rate of 10 uL/min. The remaining chip surface was blocked by injecting ethanolamine for 420 seconds at a rate of 10 uL/min.
(§7) The SPR kinetics against full-length human and cyno CEACAM5 were set up as follows. The antibody capture was performed by diluting the antibodies to a concentration of 10 nM in HBSP+ buffer. The 10 nM mAbs were captured for 20 seconds at 5 uL/min to achieve capture levels of approximately 100RU. Analyte binding was performed by first making a titration series of full-length human and cyno CEACAM5 that were prepared (from 500 nM-0.23 nM) with three-fold dilutions in HBSP+ buffer. The association rate was 180 seconds at 30 uL/min. The dissociation rate was 600 seconds at 30 uL/min. Regeneration was performed using two injections of 3M magnesium chloride MgCl2 for 30 seconds at 30 uL/min. A data fit was performed using a 1:1 binding model with global Rmax. Rmax reflects the maximal response when all ligand is occupied.

[1] = target: T2, full-length human CEACAM5 (Homo sapiens, UniProt P06731, T210S); experiment: as above; assay type: binding; details: hIgG1.3f progeny antibodies, Table 12A
T2 construct: The SPR kinetics against full-length human and cyno CEACAM5 were set up as follows
T2 sequence (P06731 35-702 T210S): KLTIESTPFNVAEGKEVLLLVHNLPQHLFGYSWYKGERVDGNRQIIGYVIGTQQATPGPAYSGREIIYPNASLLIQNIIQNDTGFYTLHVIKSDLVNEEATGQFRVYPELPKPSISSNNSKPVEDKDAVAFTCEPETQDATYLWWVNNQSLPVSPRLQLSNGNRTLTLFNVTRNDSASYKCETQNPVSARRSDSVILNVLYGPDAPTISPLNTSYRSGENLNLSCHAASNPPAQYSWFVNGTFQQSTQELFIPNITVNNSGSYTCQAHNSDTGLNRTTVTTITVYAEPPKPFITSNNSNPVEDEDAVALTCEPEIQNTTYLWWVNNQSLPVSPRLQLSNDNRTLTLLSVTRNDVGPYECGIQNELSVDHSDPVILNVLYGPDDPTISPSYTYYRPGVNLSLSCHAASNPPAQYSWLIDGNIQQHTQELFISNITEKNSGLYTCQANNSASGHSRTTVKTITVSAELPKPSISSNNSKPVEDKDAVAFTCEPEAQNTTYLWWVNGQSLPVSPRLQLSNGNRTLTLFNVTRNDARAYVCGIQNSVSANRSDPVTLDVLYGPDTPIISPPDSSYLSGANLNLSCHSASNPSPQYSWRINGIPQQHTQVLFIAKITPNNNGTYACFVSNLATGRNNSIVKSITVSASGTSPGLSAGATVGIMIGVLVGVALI
From the text: as §5, §6, §7

Chain of full-length cyno CEACAM5 (as listed by the source): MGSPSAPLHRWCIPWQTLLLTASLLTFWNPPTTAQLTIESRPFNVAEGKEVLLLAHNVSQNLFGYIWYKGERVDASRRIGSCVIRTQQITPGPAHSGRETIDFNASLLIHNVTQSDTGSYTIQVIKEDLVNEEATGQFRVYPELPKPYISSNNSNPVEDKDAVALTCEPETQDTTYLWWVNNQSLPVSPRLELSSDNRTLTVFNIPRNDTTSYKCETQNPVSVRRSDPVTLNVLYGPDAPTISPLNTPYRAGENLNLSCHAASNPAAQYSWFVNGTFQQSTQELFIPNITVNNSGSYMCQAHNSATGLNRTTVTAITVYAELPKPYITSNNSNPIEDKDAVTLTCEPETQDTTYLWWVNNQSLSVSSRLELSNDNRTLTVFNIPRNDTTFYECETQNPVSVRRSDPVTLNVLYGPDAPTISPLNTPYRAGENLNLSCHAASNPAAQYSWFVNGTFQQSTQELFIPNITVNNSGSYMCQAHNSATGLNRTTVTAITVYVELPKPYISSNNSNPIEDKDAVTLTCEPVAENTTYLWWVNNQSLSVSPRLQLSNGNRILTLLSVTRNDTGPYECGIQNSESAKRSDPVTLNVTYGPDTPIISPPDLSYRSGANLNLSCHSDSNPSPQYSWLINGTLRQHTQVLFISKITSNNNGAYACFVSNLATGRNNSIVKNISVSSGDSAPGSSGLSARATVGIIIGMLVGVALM
Chain of HCT116-cyCEACAM5 (as listed by the source): as above

B1: MBP007: hIgG1.3f progeny of MBN001; VH SEQ ID NO: 73, VL SEQ ID NO: 74 (antibody, V domains shown)
VH: QVQLVESGGGVVQPGRSLRLSCAASGIYFSSHGMHWVRQAPGKGLEWVTFISYDGSYKSYVDSVKGRFTISRDNSKNTLYLQMNSLRAEDTAVYYCATGLTGTGANDIWGQGTMVTVSS
VL: EIVLTQSPGTLSLSPGERATLSCRASQSVSSSYLAWYQQKPGQAPRLLIYGASSRATGIPDRFSGSGSGTDFTLTISRLEPEDFAVYYCQQNKPSPYTFGQGTKLEIK
For B1, the “HCT116-huCEACAM5 red/phase AUC (internalization)” value (HCT116-huCEACAM5) was 1.05, the “MKN45 24 hr red/phase AUC (internalization)” value (MKN45) was 3.28 and the “HCT116-cyCEACAM5 red/phase AUC (internalization)” value (HCT116-cyCEACAM5) was 1.80. The “cyCEACAM5 ka” value (full-length cyno CEACAM5) was 42700 M⁻¹ s⁻¹, the “cyCEACAM5 kd” value (full-length cyno CEACAM5) was 0.000924 s⁻¹ and the Kd (full-length cyno CEACAM5) was 21.7 nM. The “huCEACAM5 ka” value [1] was 79600 M⁻¹ s⁻¹ and the “huCEACAM5 kd” value [1] was 0.00171 s⁻¹.

B2: MBP010: hIgG1.3f progeny of MBN001; VH SEQ ID NO: 79, VL SEQ ID NO: 80 (antibody, V domains shown)
VH: B1 VH with Y28T, G55S, N106F
VL: B1 VL with P94R
In the case of B2, the “HCT116-huCEACAM5 red/phase AUC (internalization)” value (HCT116-huCEACAM5) is reported as 1.00, the “MKN45 24 hr red/phase AUC (internalization)” value (MKN45) is reported as 3.11 and the “HCT116-cyCEACAM5 red/phase AUC (internalization)” value (HCT116-cyCEACAM5) is reported as 2.55. For the same molecule, the “cyCEACAM5 ka” value (full-length cyno CEACAM5) was 34000 M⁻¹ s⁻¹, the “cyCEACAM5 kd” value (full-length cyno CEACAM5) was 0.000706 s⁻¹ and the Kd (full-length cyno CEACAM5) was 20.8 nM. The “huCEACAM5 ka” value [1] was 50000 M⁻¹ s⁻¹ and the “huCEACAM5 kd” value [1] was 0.00102 s⁻¹.

Reference: patent US12521446B2, “Anti-CEACAM5 antibody drug conjugates” (Bristol-Myers Squibb Company, priority 2024, dated 2026)
